From patent US20120122239A1

Tests used:
[1] = target: glycosylated human proBNP (HyTest, Turku, Finland; Catalog No. 8GOB2) (human); assay: sandwich CMIA, capture 15C4, analyte 43.3 pM
[2] = target: human NT-pro B-type natriuretic peptide (HyTest, Turku, Finland; Catalog No. 8NT1) (human); assay: sandwich CMIA, capture 15C4, analyte 43.3 pM
[3] = target: human pro B-type natriuretic peptide (HyTest, Turku, Finland; Catalog No. 8PRO8) (human); assay: sandwich CMIA, capture 15C4, analyte 43.3 pM
[4] = target: glycosylated human proBNP (HyTest, Turku, Finland; Catalog No. 8GOB2) (human); assay: sandwich CMIA, capture 15C4, analyte 86.6 pM
[5] = target: human NT-pro B-type natriuretic peptide (HyTest, Turku, Finland; Catalog No. 8NT1) (human); assay: sandwich CMIA, capture 15C4, analyte 86.6 pM
[6] = target: human pro B-type natriuretic peptide (HyTest, Turku, Finland; Catalog No. 8PRO8) (human); assay: sandwich CMIA, capture 15C4, analyte 86.6 pM
[7] = target: glycosylated human proBNP (HyTest, Turku, Finland; Catalog No. 8GOB2) (human); assay: sandwich CMIA, capture 15F11, analyte 43.3 pM
[8] = target: human NT-pro B-type natriuretic peptide (HyTest, Turku, Finland; Catalog No. 8NT1) (human); assay: sandwich CMIA, capture 15F11, analyte 43.3 pM
[9] = target: human pro B-type natriuretic peptide (HyTest, Turku, Finland; Catalog No. 8PRO8) (human); assay: sandwich CMIA, capture 15F11, analyte 43.3 pM
[10] = target: glycosylated human proBNP (HyTest, Turku, Finland; Catalog No. 8GOB2) (human); assay: sandwich CMIA, capture 15F11, analyte 86.6 pM
[11] = target: human NT-pro B-type natriuretic peptide (HyTest, Turku, Finland; Catalog No. 8NT1) (human); assay: sandwich CMIA, capture 15F11, analyte 86.6 pM
[12] = target: human pro B-type natriuretic peptide (HyTest, Turku, Finland; Catalog No. 8PRO8) (human); assay: sandwich CMIA, capture 15F11, analyte 86.6 pM
[13] = target: glycosylated human proBNP (HyTest, Turku, Finland; Catalog No. 8GOB2) (human); assay: sandwich CMIA, capture 15C4, analyte 288.7 pM
[14] = target: human NT-pro B-type natriuretic peptide (HyTest, Turku, Finland; Catalog No. 8NT1) (human); assay: sandwich CMIA, capture 15C4, analyte 288.7 pM
[15] = target: human pro B-type natriuretic peptide (HyTest, Turku, Finland; Catalog No. 8PRO8) (human); assay: sandwich CMIA, capture 15C4, analyte 288.7 pM
[16] = target: glycosylated human proBNP (HyTest, Turku, Finland; Catalog No. 8GOB2) (human); assay: sandwich CMIA, capture 15C4, analyte 577.4 pM
[17] = target: human NT-pro B-type natriuretic peptide (HyTest, Turku, Finland; Catalog No. 8NT1) (human); assay: sandwich CMIA, capture 15C4, analyte 577.4 pM
[18] = target: human pro B-type natriuretic peptide (HyTest, Turku, Finland; Catalog No. 8PRO8) (human); assay: sandwich CMIA, capture 15C4, analyte 577.4 pM
[19] = target: glycosylated human proBNP (HyTest, Turku, Finland; Catalog No. 8GOB2) (human); assay: sandwich CMIA, capture 15F11, analyte 288.7 pM
[20] = target: human NT-pro B-type natriuretic peptide (HyTest, Turku, Finland; Catalog No. 8NT1) (human); assay: sandwich CMIA, capture 15F11, analyte 288.7 pM
[21] = target: human pro B-type natriuretic peptide (HyTest, Turku, Finland; Catalog No. 8PRO8) (human); assay: sandwich CMIA, capture 15F11, analyte 288.7 pM
[22] = target: glycosylated human proBNP (HyTest, Turku, Finland; Catalog No. 8GOB2) (human); assay: sandwich CMIA, capture 15F11, analyte 577.4 pM
[23] = target: human NT-pro B-type natriuretic peptide (HyTest, Turku, Finland; Catalog No. 8NT1) (human); assay: sandwich CMIA, capture 15F11, analyte 577.4 pM
[24] = target: human pro B-type natriuretic peptide (HyTest, Turku, Finland; Catalog No. 8PRO8) (human); assay: sandwich CMIA, capture 15F11, analyte 577.4 pM
[25] = target: glycosylated human proBNP (HyTest, Turku, Finland; Catalog No. 8GOB2) (human); assay: sandwich CMIA, capture 15C4, analyte 0.0 pM (blank)
[26] = target: human NT-pro B-type natriuretic peptide (HyTest, Turku, Finland; Catalog No. 8NT1) (human); assay: as above
[27] = target: human pro B-type natriuretic peptide (HyTest, Turku, Finland; Catalog No. 8PRO8) (human); assay: as above
[28] = target: glycosylated human proBNP (HyTest, Turku, Finland; Catalog No. 8GOB2) (human); assay: sandwich CMIA, capture 15F11, analyte 0.0 pM (blank)
[29] = target: human NT-pro B-type natriuretic peptide (HyTest, Turku, Finland; Catalog No. 8NT1) (human); assay: as above
[30] = target: human pro B-type natriuretic peptide (HyTest, Turku, Finland; Catalog No. 8PRO8) (human); assay: as above

Sequence of human NT-pro B-type natriuretic peptide (HyTest, Turku, Finland; Catalog No. 8NT1) (human) (chain, as listed by the source): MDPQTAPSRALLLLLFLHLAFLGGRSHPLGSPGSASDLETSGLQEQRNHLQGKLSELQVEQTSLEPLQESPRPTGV
Sequence of glycosylated human proBNP (HyTest, Turku, Finland; Catalog No. 8GOB2) (human) (chain, as listed by the source): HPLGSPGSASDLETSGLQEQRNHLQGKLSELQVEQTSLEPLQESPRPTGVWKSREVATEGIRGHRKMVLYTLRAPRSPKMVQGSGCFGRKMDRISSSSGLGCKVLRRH

| Substance | Analyte rlus [1] [rlus] | Analyte rlus [2] [rlus] | Analyte rlus [3] [rlus] | Analyte rlus [4] [rlus] | Analyte rlus [5] [rlus] | Analyte rlus [6] [rlus] | Analyte rlus [7] [rlus] | Analyte rlus [8] [rlus] | Analyte rlus [9] [rlus] | Analyte rlus [10] [rlus] | Analyte rlus [11] [rlus] | Analyte rlus [12] [rlus] | Analyte rlus [13] [rlus] | Analyte rlus [14] [rlus] | Analyte rlus [15] [rlus] | Analyte rlus [16] [rlus] | Analyte rlus [17] [rlus] | Analyte rlus [18] [rlus] | Analyte rlus [19] [rlus] | Analyte rlus [20] [rlus] | other results |
| --- | --- | --- | --- | --- | --- | --- | --- | --- | --- | --- | --- | --- | --- | --- | --- | --- | --- | --- | --- | --- | --- |
| anti-human NT proBNP/anti-human proBNP monoclonal antibody 15F11 (HyTest, Turku, Finland) | 1010 | 883 | 851 | 835 | 998 | 1040 | 899 | 904 | 857 | 886 | 929 | 963 | 930 | 1140 | 945 | 859 | 1370 | 917 | 925 | 977 | Analyte rlus [21]: 949 rlus; Analyte rlus [22]: 953 rlus; Analyte rlus [23]: 1010 rlus; Analyte rlus [24]: 897 rlus; Analyte rlus [25]: 847 rlus; Analyte rlus [26]: 847 rlus; Analyte rlus [27]: 847 rlus; Analyte rlus [28]: 912 rlus; Analyte rlus [29]: 912 rlus; Analyte rlus [30]: 912 rlus |
| anti-human NT-proBNP/anti-human proBNP labeled monoclonal antibody 7B5 (HyTest, Turku, Finland) | 606 | 750 | 686 | 581 | 719 | 641 | 528 | 615 | 589 | 505 | 549 | 529 | 672 | 1180 | 607 | 800 | 2180 | 726 | 525 | 593 | Analyte rlus [21]: 556 rlus; Analyte rlus [22]: 600 rlus; Analyte rlus [23]: 534 rlus; Analyte rlus [24]: 612 rlus; Analyte rlus [25]: 590 rlus; Analyte rlus [26]: 590 rlus; Analyte rlus [27]: 590 rlus; Analyte rlus [28]: 615 rlus; Analyte rlus [29]: 615 rlus; Analyte rlus [30]: 615 rlus |
